The values below are quoted from earlier work in patent US10525162B2, “Sophorolipid mediated accelerated gelation of silk fibroin” (COUNCIL OF SCIENTIFIC & INDUSTRIAL RESEARCH, priority 2014, dated 2020).

The conditions of this series: aqueous SF solution without additive, below the isoelectric pH.

For “SF: Silk fibroin, fibrous protein derived from silkworm Bombyx mori”, the gelation time was 10 to 16 h.
